Sequences and labels used below:
B1: Cilia- and flagella-associated protein 418 (Homo sapiens), Q96NL8 (parent)
chain: MAEDLDELLDEVESKFCTPDLLRRGMVEQPKGCGGGTHSSDRNQAKAKETLRSTETFKKEDDLDSLINEILEEPNLDKKPSKLKSKSSGNTSVRASIEGLGKSCSPVYLGGSSIPCGIGTNISWRACDHLRCIACDFLVVSYDDYMWDKSCDYLFFRNNMPEFHKLKAKLIKKKGTRAYACQCSWRTIEEVTDLQTDHQLRWVCGKH
partner: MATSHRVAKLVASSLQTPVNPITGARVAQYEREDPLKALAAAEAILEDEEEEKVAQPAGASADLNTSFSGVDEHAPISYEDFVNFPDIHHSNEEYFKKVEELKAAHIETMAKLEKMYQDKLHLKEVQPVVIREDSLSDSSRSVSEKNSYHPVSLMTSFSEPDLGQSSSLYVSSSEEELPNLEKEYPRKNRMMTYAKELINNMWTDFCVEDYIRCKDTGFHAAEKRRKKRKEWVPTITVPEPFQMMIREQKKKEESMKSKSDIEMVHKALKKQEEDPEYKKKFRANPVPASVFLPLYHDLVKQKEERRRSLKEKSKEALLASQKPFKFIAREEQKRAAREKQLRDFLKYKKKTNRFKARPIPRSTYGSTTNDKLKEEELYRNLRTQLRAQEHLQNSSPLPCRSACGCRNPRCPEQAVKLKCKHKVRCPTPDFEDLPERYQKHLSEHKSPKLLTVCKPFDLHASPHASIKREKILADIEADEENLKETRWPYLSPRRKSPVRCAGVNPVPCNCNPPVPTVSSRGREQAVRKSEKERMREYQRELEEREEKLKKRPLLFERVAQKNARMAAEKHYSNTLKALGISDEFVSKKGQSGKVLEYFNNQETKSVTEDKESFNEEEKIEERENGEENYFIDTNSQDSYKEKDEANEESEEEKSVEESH

In the experiment the parent is B1. The settings on record: with FAM161A.
Turning to Q182R, the “effect of a mutation on the interaction” value is recorded as “with no effect”.

Regarding R177W, the “effect of a mutation on the interaction” value was “with no effect”.

The values above are taken from IntAct's records for PubMed 36233334.
